The data set in a line: amyloid nucleation score (Sup35N fusion, yeast selection) (log enrichment); library NNK1; higher = more nucleation; inactive = no reads after selection. In outline:
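Growth for 7 days at 30°C on medium lacking adenine and uracil followed a 24-hour induction with 100 μM copper sulfate of psi-negative yeast expressing peptides of 20 random codons fused to Sup35N. Input and output plasmid inserts were sequenced with Illumina, and sequences with under 100 input reads were excluded. Nucleation score is the DiMSum log enrichment of output over input reads, centred on the mode score of non-aggregating sequences.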

Among the data in the supplement of paper PMC12042874 are amyloid nucleation score values, retold here.

± gives the uncertainty stated by the source.

In turn, SNEYYPSLHYRVSVGKGLGR displayed an amyloid nucleation score of -0.154 ± 1.2.
Substance PSYIHMVSGRFSFSSPRGQK yielded an amyloid nucleation score of 0.029 ± 0.49.
Substance SVINIGRNMISI yielded an amyloid nucleation score of -0.353 ± 0.67.
The value for MGRQEASMKRCTSGDVGGWL was 0.523 ± 0.78.
The value for NMRVFWSARRQALFQWRIL was 0.807 ± 0.71; that for LQYAKRDDIDSDVLLYKMYG was 0.203 ± 0.97.
GRVVAHLNRRHR had an amyloid nucleation score of 1.38 ± 0.43.
The value for NNVRYT was “inactive”.
The value for YGNYGCLGRWNSLHTCSQIC was -0.913 ± 0.67; that for YFQFRDGIFIFYVTF was 0.415 ± 0.64; that for LAYRR was 0.274 ± 0.63.
As for LRKVGQGI, the figure is 0.066 ± 0.67.
Take NKMGFFNTISGKRS: the amyloid nucleation score was -0.556 ± 0.59.
The substance EYLLNNPVGRCFDLLFNSIG had an amyloid nucleation score of -0.881 ± 0.66.
As for CQIFELLSNVRVTLLIYNSG, the figure is 1.41 ± 0.19; as for RCRAVELLEVRRLQMRSGHH, -0.295 ± 0.34; as for AWRDTDVASSVICG, 0.932 ± 0.97.
The value for LVALPMWIF was 0.402 ± 0.41; that for NNSLISTGVRMNHVVLR was -0.091 ± 0.9.
The value for SHYTHVFLM was -0.468 ± 0.93; that for SSNRLSSMQG was 1.09 ± 0.38.
Consider LISNRPMW, for which the amyloid nucleation score came out at 0.29 ± 0.48.
KRFLSYWRFSWGWYIAQACG showed an amyloid nucleation score of -0.68 ± 1.4.
The value for ILFVG was -0.462 ± 0.42.
Substance MDAFTNAWVMGWCMLHCARG yielded an amyloid nucleation score of 0.524 ± 0.7.
The value for AIQCSTARNDVECKLFTYVL was 0.086 ± 0.71.
As for FMGFISACQRMIIIMYVFRT, the figure is -0.126 ± 0.28.
The value for LSLKASDMRIGRYRSDKATF was 1.18 ± 0.79; that for RKLKSCSTNGHIG was 6.02 ± 0.063; that for HCLSNCSSRVGGFSFNAPVA was 0.5 ± 0.45.
LLIWRN gave an amyloid nucleation score of 0.995 ± 0.62.
The value for TPSIYRNVCDIEGLLSSRYL was 0.36 ± 0.54.
As for VVKVWPYYSYVSMV, the figure is -0.114 ± 0.55; as for PLFLYRFCKMVPVCILRIGW, 0.415 ± 0.3.
The value for SEGCCYRKGCVTTRDSALSG was “inactive”; that for ILTVLLISMWVMNHLIFLGL was -0.563 ± 1.4; that for KHQSHFLVV was 0.872 ± 0.45.
The substance LGSILV displayed an amyloid nucleation score of -0.751 ± 0.94.
As for VLVGCLASQRVISENKGCKC, the figure is 0.722 ± 0.81; as for RCPYSYHGYSVNNWGSAWT, 0.487 ± 0.54; as for FKDGLCYCNSGVS, -0.452 ± 0.39.
Substance RFWSAL gave an amyloid nucleation score of -0.148 ± 0.92.
In the case of PSALGMVNGYIRVIYKRR, the amyloid nucleation score came to 0.359 ± 0.53.
As for SSLWTCREVTDIFIHNCAMI, the figure is 1.21 ± 0.79.
On to PNRSLCTVNMCIYVETGFMV, for which the amyloid nucleation score entry is “inactive”.
IKSVVLS registered an amyloid nucleation score of 0.043 ± 0.63.
The value for PYFVIKSRWGQNRS was “inactive”.
The value for YGKSYVIDGVVWGRQDSWES was -0.748 ± 1.6; that for YTEQACDSVP was -0.788 ± 0.89; that for WWLRVVS was 0.041 ± 0.78.
As for AVMPHCSCTRNQRFRLVSMH, the figure is 0.707 ± 0.85.
Substance WYPAANLRLVALIKGVSAVT gave an amyloid nucleation score of -2.23 ± 2.4.
As for HQTCCLWSTVVLGV, the figure is 3.04 ± 0.15; as for NTDYSQAGVCGSRCLNSAL, 1.54 ± 0.69.
As for GEDVFVRSNELRN, the figure is 0.338 ± 0.38; as for CVDRQFAAVRQVTTIQTWCG, 0.983 ± 0.26; as for WCSAMKISTRAPRWENIWSM, 0.612 ± 0.62.
The value for YSVGFTCRMVTLSASWYWLW was 0.136 ± 0.32; that for YFMTHRGLCRCISLSYNFKI was -0.957 ± 0.98; that for INYGMRCYEE was -0.427 ± 1.2.
Substance VLRWYEDNPFC yielded an amyloid nucleation score of 0.291 ± 0.32.
As for VSAND, the figure is -0.547 ± 0.4.
SSYCNLVASIL came in with an amyloid nucleation score of 0.649 ± 0.53.
The value for CPVNDMGVWGKMACWNNRV was -0.691 ± 0.54.
As for VGLISALANTGMFRTSNCVF, the figure is 0.426 ± 0.5; as for DVLLSFEYLD, “inactive”.
Regarding VLWSCDAMWWVRIKSTYVWN, the amyloid nucleation score was found to be 0.495 ± 1.2.
KKNIWPLYSLRVRLYELAIS had an amyloid nucleation score of -0.965 ± 1.7.
Substance KSMECSFAWLWDSREFIFCH displayed an amyloid nucleation score of -1.67 ± 1.4.
As for YYEMIFSWVTPHSYRDTSYC, the figure is -0.733 ± 1.9; as for KSTRWQIRSDALDVSERCFS, 1 ± 0.76.
The value for GGFAILNAREEHWGLKGSSM was -0.491 ± 0.55; that for GPRAN was -1.55 ± 2.7; that for VATPISLGFPPWTSNVHAHT was “inactive”.
As for LVFLTYSSASARIPLRI, the figure is 0.267 ± 0.29; as for LWCCGGAFHSTDLGSAGLIM, 0.372 ± 1.4; as for IFTFSIVTSNATGYLW, 2.29 ± 0.12.
The substance WFTGGFRVIMGS had an amyloid nucleation score of 0.728 ± 0.97.
As for DSLFTIYMNSISFR, the figure is 5.83 ± 0.093; as for EDDFASMRLDSLRELVLHNR, “inactive”.
The value for VGFRGVLQIPGLSFPEALVR was 0.024 ± 0.46; that for KSTTLLVGSRSCGAHLQRLH was 0.462 ± 0.37.
As for NWGCFQYSGTGNRLGTNAPV, the figure is -0.999 ± 0.68.
Substance NQDVTPVMRVVLDSSPTLSS gave an amyloid nucleation score of 2 ± 0.6.
In turn, TIGFTHYCCSFKS had an amyloid nucleation score of -1.23 ± 0.52.
As for FLWDL, the figure is 0.268 ± 0.75; as for AVCIMFRVNRFIRIVNTGGC, 0.042 ± 0.58; as for FNVAAVVGWMKRLIDRSRNT, 1.3 ± 0.88.
Turning to NALRVV, the amyloid nucleation score is -0.637 ± 0.68.
As for VMGVLYSRADSVVEIGLLRV, the figure is -0.972 ± 1; as for FFVFSSLGHLV, 0.859 ± 0.26; as for GLFMGWYDRMP, 0.265 ± 0.6.
The value for PGSGCNVFKL was -0.403 ± 0.25; that for CMSSAALSRLHM was -0.605 ± 1.1; that for LFYPFTLHWVCCSWCLYEVR was 6.927 ± 0.056.
The value for HCNSNVTWKV was 0.414 ± 0.63; that for CESCAACMRHYRWLGFQSYI was -1.5 ± 2.4; that for LILEHNFWVRISYELVPCFW was 1.15 ± 0.3.
With GHWSYYKVTSYYI, the amyloid nucleation score entry was “inactive”.
The value for ESAHNWWNPVSSYL was 1.06 ± 0.58.
The value for DVFVY was -0.273 ± 0.45.
The value for GTVYWIYGGINLSAVLSSRS was 3.44 ± 0.1; that for FRGSRELNMSSQGVGACLIR was -0.399 ± 0.88.
Substance IRCLGISRIFLVYRSVPFWI displayed an amyloid nucleation score of 0.413 ± 0.57.
As for WRTSEFSHSLVKYVLSRVLT, the figure is 1.31 ± 0.56; as for SASVAHLCDYVVENI, 0.018 ± 0.54.
Consider IHVTGCYLEPSAHF, for which the amyloid nucleation score entry was “inactive”.
VAMLQFASFQSSW: the amyloid nucleation score was -0.323 ± 0.39.
As for KFRRW, the figure is -0.832 ± 0.56.
TFIVQPFLTENPIASRFESA yielded an amyloid nucleation score of 0.063 ± 0.38.
Regarding VFSKNFRVVIFTSNRSLFNK, the amyloid nucleation score was found to be 0.595 ± 0.72.
The value for LQRLY was -0.251 ± 0.35; that for VSVKSNGWMSWWLSWQVPKH was -0.147 ± 0.63.
As for WPLLPVELNVSTRHENGLLM, the figure is 1.4 ± 0.34; as for LDLMVVCFKGIRGFEKMIGG, 1.5 ± 0.31; as for ITLCVNRLRFRVKLNHQSSF, “inactive”.
The value for SKDGCSCFDIDVAMEGLLMR was -0.053 ± 1.1; that for SKSYFSIV was -0.361 ± 0.39.
With SFLWYIGFNSWRFCGRYTTL, the amyloid nucleation score came out at 0.174 ± 0.5.
Substance GTSSGLV registered an amyloid nucleation score of 0.104 ± 1.1.
As for HKHRKPSLNRVPGVGW, the figure is -0.78 ± 0.43; as for MSVVWSWMYFIKLDTFA, -0.348 ± 0.23.
The substance CSVKCKTRCVYRFMESKWF yielded an amyloid nucleation score of -0.021 ± 0.32.
As for NFGNVNFVYVTWMVAESSAC, the figure is 5.915 ± 0.057.
The value for NVSISVR was -0.054 ± 0.38; that for LQAAGLRFGRICLFLDK was -0.259 ± 1.2; that for NVVYMYSSASEYVWHRRLGF was -0.993 ± 0.43.
In the case of SLWNDFHMVAVYLVTLSSVD, the amyloid nucleation score turned out to be 0.895 ± 0.79.
The value for GLASVRILGRMQV was -0.106 ± 0.36.
As for LARTMYCYIVSEKVLWSGVG, the figure is 2.15 ± 0.1.
The substance QRPLCENRLDYKLGYSTMTF came in with an amyloid nucleation score of -0.646 ± 1.6.
As for AEVTDMGDLFSERMLSVVQI, the figure is -0.499 ± 1.9; as for RQLVIIFNDDLGDVGNGNFC, 7.61 ± 0.043; as for EKIQINQKG, 1.04 ± 0.66.
The value for MRRCTGMLCYTIS was 0.97 ± 0.53.
The substance TNWVWELL gave an amyloid nucleation score of -0.544 ± 1.9.
The value for ASIKTRTSFRVKVWYWVRNL was -0.598 ± 1.7; that for MLWSKKGTGNYRYCRTGYTG was 0.322 ± 0.49; that for YPGRLRCSRVMSEFVLNSAL was -1.27 ± 0.68.
As for TNYQRIQHA, the figure is -0.903 ± 2.4; as for FRYVDALHDRSSYIQIGKRI, -0.423 ± 1.5; as for SVVIFHHTICLERDAVRQKF, 5.02 ± 0.083.
As for IDHNLSGLVC, the amyloid nucleation score was 0.544 ± 0.97.
